According to publication PMC9951308:
Starred links: 1 amine or outer side, 2 acyl side, 3 side chain; linkers in the order of their positions; H or OH if unused. Positions of bridges follow the written chain, without caps; N, C: chain ends. Residues, ends and D or L forms follow the SMILES beside them. TBMB = c1c(C[*:1])cc(C[*:3])cc1C[*:2]; mXylylene = c1cc(C[*:1])cc(C[*:2])c1

test: circular dichroism; settings: PBS 10 mM; pH 7.4; 25 °C; 10 uM

Which helicity does the source give for `CC(=O)N[C@@H](C)C(=O)N[C@@H](C)C(=O)N[C@@H](C)C(=O)N[C@@H](C)C(=O)N[C@@H](CCCCN)C(=O)N[C@@H](C)C(=O)N[C@@H](C)C(=O)N[C@@H](C)C(=O)N[C@@H](C)C(=O)N[C@@H](CCCCN)C(=O)N[C@@H](Cc1c[nH]c2ccccc12)C(=O)N[C@H]1CSCc2cc3cc(c2)CSC[C@H](NC(=O)[C@H](C)NC(=O)[C@H](C)NC1=O)C(=O)N[C@@H](C)C(=O)N[C@H](C(N)=O)CSC3` (Ac-AAAAKAAAAKWCAACAC-NH2; linker 12-15-17 via TBMB) here?
Its helicity is 33%.

Which helicity does the source give for `CC(=O)N[C@@H](C)C(=O)N[C@@H](C)C(=O)N[C@@H](C)C(=O)N[C@@H](C)C(=O)N[C@@H](CCCCN)C(=O)N[C@@H](C)C(=O)N[C@@H](C)C(=O)N[C@@H](C)C(=O)N[C@@H](C)C(=O)N[C@@H](CCCCN)C(=O)N[C@@H](Cc1c[nH]c2ccccc12)C(=O)N[C@H]1CSCc2cc3cc(c2)CSC[C@H](NC(=O)[C@H](C)NC(=O)[C@H](C)NC1=O)C(=O)NCC(=O)N[C@H](C(N)=O)CSC3` (Ac-AAAAKAAAAKWCAACGC-NH2; linker 12-15-17 via TBMB) here?
The helicity was 65%.

For `CC(=O)N[C@@H](C)C(=O)N[C@@H](C)C(=O)N[C@@H](C)C(=O)N[C@@H](C)C(=O)N[C@@H](CCCCN)C(=O)N[C@@H](Cc1c[nH]c2ccccc12)C(=O)N[C@H]1CSCc2cccc(c2)CSC[C@@H](C(N)=O)NC(=O)CNC(=O)[C@H](C)NC(=O)[C@H](C)NC(=O)[C@H](C)NC1=O` (Ac-AAAAKWCAAAGC-NH2; linker 7-12 via mXylylene), which helicity is on record?
The helicity was 34%.

With `CC(=O)N[C@@H](C)C(=O)N[C@@H](C)C(=O)N[C@@H](C)C(=O)N[C@@H](C)C(=O)N[C@@H](CCCCN)C(=O)N[C@@H](Cc1c[nH]c2ccccc12)C(=O)N[C@H]1CSCc2cccc(c2)CSC[C@@H](C(=O)NCC(=O)N[C@@H](C)C(N)=O)NC(=O)[C@H](C)NC(=O)[C@H](C)NC1=O` (Ac-AAAAKWCAACGA-NH2; linker 7-10 via mXylylene) as the molecule, how does the helicity read?
The helicity was 33%.

Which helicity does the source give for `CC(=O)N[C@@H](C)C(=O)N[C@@H](C)C(=O)N[C@@H](C)C(=O)N[C@@H](C)C(=O)N[C@@H](CCCCN)C(=O)N[C@@H](Cc1c[nH]c2ccccc12)C(=O)N[C@H]1CSCc2cc3cc(c2)CSC[C@H](NC(=O)[C@H](C)NC(=O)[C@H](C)NC1=O)C(=O)NCC(=O)N[C@H](C(N)=O)CSC3` (Ac-AAAAKWCAACGC-NH2; linker 7-10-12 via TBMB) here?
Its helicity is 59%.

With `CC[C@H](C)[C@@H]1NC(=O)[C@@H](NC(=O)[C@H](C)NC(=O)[C@H](CC(C)C)NC(=O)[C@H](CCC(N)=O)NC(=O)[C@H](CCCNC(=N)N)NC(=O)[C@H](C)NC(=O)[C@@H](NC(=O)[C@H](CCC(N)=O)NC(C)=O)C(C)C)CSCc2cc3cc(c2)CSC[C@H](NC(=O)[C@H](Cc2ccc(O)cc2)NC1=O)C(=O)NCC(=O)N[C@H](C(N)=O)CSC3` (Ac-QVARQLACIYCGC-NH2; linker 8-11-13 via TBMB) as the molecule, how does the helicity read?
The helicity was 38%.

With `CC[C@H](C)[C@H](NC(=O)[C@H](CCCNC(=N)N)NC(C)=O)C(=O)N[C@@H](C)C(=O)N[C@@H](CCCNC(=N)N)C(=O)N[C@@H](CC(C)C)C(=O)N[C@@H](CCC(=O)O)C(=O)N[C@@H](CCC(=O)O)C(=O)N[C@H]1CSCc2cc3cc(c2)CSC[C@H](NC(=O)[C@H](CCCCN)NC(=O)[C@H](Cc2ccc(O)cc2)NC1=O)C(=O)NCC(=O)N[C@H](C(N)=O)CSC3` (Ac-RIARLEECYKCGC-NH2; linker 8-11-13 via TBMB) as the molecule, how does the helicity read?
The helicity was 48%.

Which helicity does the source give for Ac-AAAAKAAAAKAAAAKAW-NH2 here?
The helicity was 48%.

For Ac-AAAAKAAAAKAW-NH2, which helicity is on record?
Its helicity is 17%.

With Ac-QVARQLAEIY-NH2 as the molecule, how does the helicity read?
The helicity was 8%.

For Ac-RIARLEEKYK-NH2, which helicity is on record?
The helicity was 17%.

Which helicity does the source give for Ac-WAAAKAAAAKALAAIGV-NH2 here?
Its helicity is 37%.

For Ac-WAAAKAAAAKALAALGF-NH2, which helicity is on record?
The helicity was 38%.

With Ac-WAAAKAAAAKALAALGI-NH2 as the molecule, how does the helicity read?
The helicity was 52%.

For Ac-WAAAKAAAAKALAALGL-NH2, which helicity is on record?
The helicity was 54%.

Which helicity does the source give for Ac-WAAAKAAAAKALAALGV-NH2 here?
The helicity was 44%.

Which helicity does the source give for Ac-WAAAKAAAAKALAALGW-NH2 here?
Its helicity is 44%.

With Ac-WAAAKAAAAKALAALGY-NH2 as the molecule, how does the helicity read?
The helicity was 45%.
